Reference: patent US20210395361A1 (Alector, published 2021)

T1: Histidine-tagged human Siglec-5 (NovoProtein) (human, UniProt O15389 17-434, limits assumed)
T1 construct: Bought soluble protein; also called His-tagged human Siglec-5; not shown: histidine tag
T1 sequence: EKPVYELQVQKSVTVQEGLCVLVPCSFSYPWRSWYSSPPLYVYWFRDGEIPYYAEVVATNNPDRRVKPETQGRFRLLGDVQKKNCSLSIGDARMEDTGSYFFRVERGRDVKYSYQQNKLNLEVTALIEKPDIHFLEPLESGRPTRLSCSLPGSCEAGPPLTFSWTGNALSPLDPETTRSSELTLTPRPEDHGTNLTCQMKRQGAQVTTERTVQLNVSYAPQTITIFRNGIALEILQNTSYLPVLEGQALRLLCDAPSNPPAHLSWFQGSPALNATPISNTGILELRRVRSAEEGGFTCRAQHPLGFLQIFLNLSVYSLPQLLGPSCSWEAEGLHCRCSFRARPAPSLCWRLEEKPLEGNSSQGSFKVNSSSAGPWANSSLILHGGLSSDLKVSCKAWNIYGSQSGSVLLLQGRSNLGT

T2: human Siglec-14 (human, UniProt Q08ET2 17-396)
T2 construct: also called CHO-S14; CHO-S hSiglec-14
T2 sequence: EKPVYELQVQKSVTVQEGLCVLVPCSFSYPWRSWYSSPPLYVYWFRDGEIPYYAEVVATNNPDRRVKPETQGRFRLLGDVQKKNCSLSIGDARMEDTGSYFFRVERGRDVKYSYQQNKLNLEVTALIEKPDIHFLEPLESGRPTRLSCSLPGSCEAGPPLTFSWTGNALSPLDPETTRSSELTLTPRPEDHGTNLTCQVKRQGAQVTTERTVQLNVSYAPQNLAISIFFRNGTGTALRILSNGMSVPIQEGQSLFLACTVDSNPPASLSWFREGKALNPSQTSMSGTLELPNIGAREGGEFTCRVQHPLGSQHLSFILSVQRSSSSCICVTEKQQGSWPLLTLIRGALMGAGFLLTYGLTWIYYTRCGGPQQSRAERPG


Assays:
[1] = target: T1, Histidine-tagged human Siglec-5 …; assay: array SPR, antibody immobilized, His-tagged human Siglec-5 (0-500 nM) in solution; apparent affinity
Description: The apparent binding affinities of the anti-Siglec-5 antibodies were measured by array surface plasmon resonance (SPR), according to standard techniques (Abdiche, et al. (2016) MAbs 8:264-277). Briefly, anti-Siglec-5 antibodies were immobilized on a HC 30M chip at four different densities, at antibody concentration of 10 μg/mL, 2.5 μg/mL, 0.63 μg/mL, and 0.16 μg/mL. Varying concentrations (0-500 nM) of Histidine-tagged human Siglec-5 or cynomolgus Siglec-5 (NovoProtein) were then bound to the captured anti-Siglec-5 surface (5 min injection time, 15 min dissociation time) in HBS-EP⁺/1 mg/mL BSA running buffer. Kinetic analysis was performed using Carterra software to extract association and dissociation rate constants (kₐ and kd, respectively) for each antibody. Apparent affinity constants (KD) were calculated from the ratio kd/kₐ. None of the anti-Siglec-5 antibodies bound to cynomolgus Siglec-5 protein.

human Siglec-14 = target: T2, human Siglec-14; assay: FACS, CHO cells stably transfected with human Siglec-14 (CHO-S14), fluorescent secondary antibody; y-axis Binding (Fold over background); antibody concentration not shown
Description: The anti-Siglec-5 antibodies were evaluated for their ability to bind to CHO cells which were stably transfected with human Siglec-5 (CHO-S5) or human Siglec-14 (CHO-S14). The anti-Siglec-5 antibodies were also evaluated for their ability to bind to primary human neutrophils. Cells were incubated with various dilutions of the anti-Siglec-5 antibodies for 30 minutes on ice in the dark, followed by a 30-minute incubation with a fluorescently-conjugated anti-human IgG secondary antibody. Cells were washed twice in FACS buffer (PBS+2% FBS, 2 mM EDTA), and flow cytometry was performed on a BD FACS Canto. Data were analyzed using FlowJo software (Ashland, Oreg.). In the figures, “hIgG1” and “mIgG1” refer to isotype control antibodies, and “S5/14 1A5” refers to a commercially available antibody that binds both Siglec-5 and Siglec-14 (BioLegend, clone 1A5).

Row | Kd [1] | koff [1] | kon [1] | binding result (human Siglec-14) | Binder
1 | 61 nM | 0.0013 s⁻¹ | 21000 M⁻¹ s⁻¹ | no binding | S5-183 (antibody, V domains shown, Mouse-derived variable domains; expressed in mammalian cells as full antibody; hIgG1 isotype control) VH: QAYLQQSGPGLVAPSQSLSITCTVSGFSVTSYGVSWVRQPPGKGLEWLGVIWGDGSTNYHSDLISRLSISKDNSKSQVFLKLNSLQIADTATYYCARPRAFYYGSRGYWYFDVWGTGTTVAVSS VL: DIVMTQSPASLSASVGETVTITCRASENIYSYLAWYQQKQGKSPQLLVYNTKTLVEGVPSRFSGSGSDTQFSLKINSLQPEDFGTYYCQHHYGPPPTFGTGTKLELK
2 | 31 nM | 0.0011 s⁻¹ | 36000 M⁻¹ s⁻¹ | no binding | S5-202 (antibody, V domains shown, Mouse-derived variable domains; expressed in mammalian cells as full antibody; also called S5-PN202) VH: QAYLQQSGPGLVAPSQSLSITCTVSGLSLTSYGVSWVRQPPGKGLEWLGVIWGDGSTNYHSALISRLSISKDNSKSQVFLKLNSLQTDDTATYYCAKPGAFYYGSRYYWYFDVWGTGTTVTVSS VL: DIQMTQAHKVMSTSVGDRVSITCKASQDVSTAVAWYQQKPGQSPKLLIYSASYRYTGVPDRFTGSGSGTDFTFTISSVQAEDLAVYYCQQHYSPPPTFGGGTRREIK
3 | 5.3 nM | 0.00085 s⁻¹ | 160000 M⁻¹ s⁻¹ | no binding | S5-182 (antibody, V domains shown, Mouse-derived variable domains; expressed in mammalian cells as full antibody; hIgG1 isotype control) VH: QAYLQQSGAELVKPGASVKLSCKASGYTFTSYWLHWVKQRPGQGLEWIGMIHPNSGSTDYNERFKSKATLIVDKSSSTAYMQLSSLTSEDSAVYYCAKTFYYFDYWGQGTALTVSS VL: DVVMTQSPSSMYASLGERVTITCKASQDINSYLSWFQQKPGKSPKTLIYRANRLVDGVPSRFSGSGSGQDYSLTISSLEYEDMGIYYCLQYDELYTFGGGTKLEIK
